From US7740850B2, “PDGFRβ-specific antibodies” (ImClone, LLC, priority 2007, dated 2010)

B1: 1B3: human anti-mouse PDGFRβ antibody from Fab phage display library, human κ/γ1 constant regions; SEQ ID NOS in Table 1 (antibody, listed as Homo sapiens, V domains shown)
VH: QVQLQESGGGLVKPGGSLRLSCAASGFTFSSYSMNWVRQAPGKGLEWVSSISSSSSYIYYADSVKGRFTISRDNSKNTLYLQMNSLRAEDTAVYYCAKGGRPLLVFDFWGQGTLVTVS
VL: EIVMTQSPGTLSLSPGERATLSCRASQSVSSSYLAWYQQKPGQAPRLLIYDASKRATGIPARFSGSGSGTDFTLTISTLESEDSAVYYCQQRGYWPPITFGQGTRLEIKR
modifications: human kappa/gamma1 constant regions
B2: 2C5: PDGFRβ-specific human antibody binding both human and murine PDGFRβ; SEQ ID NOS in Table 1 (antibody, listed as Homo sapiens, V domains shown)
VH: QVQLVQSGAEVKKPGSSVKVSCKASGGTFSSYAISWVRQAPGQGLEWMGRIIPILGIANYAQKFQGRVTITADKSTSTAYMELSSLRSEDTAVYYCARDMGSRNYYYFYWGQGTLVTVSS
VL: EIVLTQSPATLSLSPGERATLSCRASQSVGRYLAWYQQKPGQAPRLLIYGASNRATGIPARFSGSGSGTDFTLTISSLEPEDFAVYYCQQRSNWPLTFGGGTKVEIK

Assays:
[1] = tested on: Akt and p44/42 MAP kinase in D122 cells; test: PDGF-BB-stimulated downstream signaling (Western blot); type: cell-based, mouse
Text: To study the downstream signaling, the cell lysate from the above treatment were resolved by a 4-12% NuPAGE Bis-Tris gel. Phosphorylated Akt and p44/42 mitogen-activated protein kinase (MAPK) were detected using an anti-phospho-Akt and an anti-phospho-p44/p42 MAPK and p44/p42 MAPK, respectively (eBioscience, San Diego, Calif.).

hPDGFRβ = hPDGFRβ (Homo sapiens, UniProt P09619); test: Antibody affinity determination (BIAcore, surface plasmon resonance); type: binding; details: one experiment
hPDGFRβ, sequence (P09619 33-1106): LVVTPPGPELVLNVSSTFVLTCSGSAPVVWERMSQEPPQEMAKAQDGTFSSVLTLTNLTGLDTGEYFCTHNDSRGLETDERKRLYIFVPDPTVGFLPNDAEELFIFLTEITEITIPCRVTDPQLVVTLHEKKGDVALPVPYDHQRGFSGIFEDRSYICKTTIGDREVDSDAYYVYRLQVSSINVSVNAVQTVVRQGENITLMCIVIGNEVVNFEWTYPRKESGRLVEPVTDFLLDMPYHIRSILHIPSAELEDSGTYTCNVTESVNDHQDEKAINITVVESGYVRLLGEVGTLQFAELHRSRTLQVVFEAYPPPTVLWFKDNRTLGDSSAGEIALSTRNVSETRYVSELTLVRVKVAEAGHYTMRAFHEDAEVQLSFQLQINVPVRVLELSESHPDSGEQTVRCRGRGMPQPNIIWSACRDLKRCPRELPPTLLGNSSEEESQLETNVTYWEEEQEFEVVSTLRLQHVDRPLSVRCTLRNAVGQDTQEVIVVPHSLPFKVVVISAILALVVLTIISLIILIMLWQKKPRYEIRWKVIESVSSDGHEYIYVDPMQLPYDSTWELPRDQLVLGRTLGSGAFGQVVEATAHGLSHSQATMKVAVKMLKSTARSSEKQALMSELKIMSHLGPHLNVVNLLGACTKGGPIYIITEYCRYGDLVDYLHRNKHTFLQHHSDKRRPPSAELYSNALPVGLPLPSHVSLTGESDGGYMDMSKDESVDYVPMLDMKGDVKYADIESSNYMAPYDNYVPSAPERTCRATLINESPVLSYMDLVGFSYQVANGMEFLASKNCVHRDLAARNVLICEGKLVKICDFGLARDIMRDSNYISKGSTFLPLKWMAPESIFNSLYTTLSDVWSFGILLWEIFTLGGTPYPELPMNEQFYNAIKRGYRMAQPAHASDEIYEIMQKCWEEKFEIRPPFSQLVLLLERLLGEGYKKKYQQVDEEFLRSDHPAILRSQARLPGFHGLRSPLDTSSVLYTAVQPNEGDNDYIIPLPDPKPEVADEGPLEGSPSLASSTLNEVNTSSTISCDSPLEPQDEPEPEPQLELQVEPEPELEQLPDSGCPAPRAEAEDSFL
Description: (§1) Antibody affinity determination. The binding kinetics of various Fab and IgG to mPDGFRβ were measured using a BIAcore 3000 biosensor (BIACORE, Inc., Uppsala, Sweden). Briefly, mPDGFRβ was immobilized onto a sensor chip and soluble antibodies were injected at concentrations ranging from 1.5 nM to 100 nM. Sensorgrams were obtained at each concentration and were evaluated using the program, BIA Evaluation 2.0. The affinity constant, Kd, was calculated from the ratio of dissociation rate (koff)/association rate (kon) (Lu, D. et al., 2002; Zhu, Z. et al., 1998; Loizos, N. et al., 2005).
As determined by BIAcore analysis, 2C5 binds to hPDGFRβ with similar binding characteristics as 1B3 binds to mPDGFRβ. […] However, whereas 1B3 binds to murine PDGFRβ but not human PDGFRβ, 2C5 binds to both proteins. (FIG. 6).

human PDGFRα = human PDGFRα (Homo sapiens, UniProt P16234); test: Binding to PDGFRα
human PDGFRα, sequence (P16234 24-1089): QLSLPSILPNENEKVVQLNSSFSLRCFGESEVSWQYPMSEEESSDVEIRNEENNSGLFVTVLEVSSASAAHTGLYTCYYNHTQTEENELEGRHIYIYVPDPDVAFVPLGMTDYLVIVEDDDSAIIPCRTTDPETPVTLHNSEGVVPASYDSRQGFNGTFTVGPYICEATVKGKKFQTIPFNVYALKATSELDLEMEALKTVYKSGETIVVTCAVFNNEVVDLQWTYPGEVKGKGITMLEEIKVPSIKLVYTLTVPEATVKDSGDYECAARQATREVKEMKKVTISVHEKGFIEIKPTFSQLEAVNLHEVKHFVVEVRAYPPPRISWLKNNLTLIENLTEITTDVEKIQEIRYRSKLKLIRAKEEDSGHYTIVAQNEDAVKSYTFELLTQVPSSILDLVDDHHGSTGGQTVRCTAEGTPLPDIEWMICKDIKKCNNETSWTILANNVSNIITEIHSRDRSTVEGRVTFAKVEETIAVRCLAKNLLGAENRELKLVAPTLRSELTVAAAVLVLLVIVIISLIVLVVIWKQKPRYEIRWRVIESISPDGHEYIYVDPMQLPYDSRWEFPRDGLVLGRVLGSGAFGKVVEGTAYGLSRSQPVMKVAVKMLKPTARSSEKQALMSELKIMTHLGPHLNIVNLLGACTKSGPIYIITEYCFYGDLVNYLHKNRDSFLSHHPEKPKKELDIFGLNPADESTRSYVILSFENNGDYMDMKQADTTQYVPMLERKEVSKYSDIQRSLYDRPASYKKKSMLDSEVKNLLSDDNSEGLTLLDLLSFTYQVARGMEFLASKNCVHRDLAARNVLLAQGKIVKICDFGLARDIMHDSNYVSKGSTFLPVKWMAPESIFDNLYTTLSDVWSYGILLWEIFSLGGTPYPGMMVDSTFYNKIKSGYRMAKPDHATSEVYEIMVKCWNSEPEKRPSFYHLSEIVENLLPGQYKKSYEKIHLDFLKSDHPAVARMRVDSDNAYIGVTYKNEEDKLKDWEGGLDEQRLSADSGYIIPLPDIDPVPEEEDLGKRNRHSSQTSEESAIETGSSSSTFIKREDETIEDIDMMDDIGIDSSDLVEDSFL

[2] = tested on: BxPC-3 pancreatic carcinoma xenograft; test: Subcutaneous tumor xenograft model; type: in vivo, mouse; details: for Tumor Volume T/C %: BxPC3 xenograft, monotherapy
Description: (§2) Six xenograft models, SK-OV-3, OV-CAR-8, BxPC-3, OV-CAR-5, Caki-1 and NCI-H460 (A to F, respectively) were used to examine the effects of 1B3 on xenograft tumors in athymic nude mice. Mice with established tumors (˜250-300 mm^3) were randomly grouped and treated with 1B3, normal human IgG, or saline by intraperitoneal injection twice weekly (except for BxPC-3 model where the mice were treated three times a week) at the dose indicated.
(§3) Subcutaneous xenografts of BxPC-3 (A) or 5×10^6 NCI-H460 (B) were established in female athymic (nu/nu) mice. When tumors reached ˜300-350 mm^3, mice were randomized and divided into four groups (n=12), and treated with USP saline, 40 mg/kg of 1B3, 40 mg/kg of DC101 or 40 mg/kg 1B3 plus 40 mg/kg DC101, three times a week.
(§4) Six human xenograft tumor models, including three ovarian carcinoma (SK-OV-3, OV-CAR-5 and OV-CAR-8), one pancreatic carcinoma (BxPC3), one lung carcinoma (NCI-H460), and one kidney carcinoma (Caki-1), were used to assess the antitumor activity of 1B3 in vivo. Athymic (nu/nu) mice (female, 7-8 weeks of age) were housed for 7-10 days before xenograft implantation. Each mouse was injected subcutaneously with 3-10×10^6 cells of SK-OV-3, OVCAR-5, OVCAR-8, Caki-1, BxPC3 or NCI-H460 tumor cells. When tumors reached approximately 250-300 mm^3, mice were randomized into groups of 10 to 12 animals each and treated by intraperitoneal injection, 2 to 3 times per week, with 1B3, DC101, or 1B3 in combination with DC101. Human IgG and/or USP saline were used as control groups. Tumor sizes and mouse body weight were measured twice a week. Tumor volume was calculated using the formula: π/6×(length×width^2), where length=longest diameter and width=diameter perpendicular to length. The ratio of average tumor volume in the treatment group versus that in the control group (T/C %) was calculated. Statistic analysis was performed by Student's t-test.
(§5) To study the antitumor effects of monotherapy with an anti-PDGFRβ antibody, mice were treated with 1B3, normal human IgG, or saline twice weekly by intraperitoneal injections. In SK-OV-3 model, tumor-bearing mice were given 1B3 at 6, 20, or 60 mg/kg dose.
(§6) Athymic nude mice bearing xenografted tumors of 300-350 mm^3 size were randomized and divided into four treatment groups (n=12/group), and were treated by intraperitoneal injections three times a week with saline, 1B3 (40 mg/kg), DC101 (40 mg/kg), or 1B3 (40 mg/kg) plus DC101 (40 mg/kg).
(§7) The five human xenograft tumor models described above (OVCAR-5 and OVCAR-8, BxPC3, NCI-H460, and Caki-1) were used to assess the antitumor activity of 2C5 in vivo.

mPDGFRβ = mPDGFRβ (Mus musculus, UniProt P05622); test: Antibody affinity determination (BIAcore, surface plasmon resonance); type: binding
mPDGFRβ, sequence (P05622 32-1098): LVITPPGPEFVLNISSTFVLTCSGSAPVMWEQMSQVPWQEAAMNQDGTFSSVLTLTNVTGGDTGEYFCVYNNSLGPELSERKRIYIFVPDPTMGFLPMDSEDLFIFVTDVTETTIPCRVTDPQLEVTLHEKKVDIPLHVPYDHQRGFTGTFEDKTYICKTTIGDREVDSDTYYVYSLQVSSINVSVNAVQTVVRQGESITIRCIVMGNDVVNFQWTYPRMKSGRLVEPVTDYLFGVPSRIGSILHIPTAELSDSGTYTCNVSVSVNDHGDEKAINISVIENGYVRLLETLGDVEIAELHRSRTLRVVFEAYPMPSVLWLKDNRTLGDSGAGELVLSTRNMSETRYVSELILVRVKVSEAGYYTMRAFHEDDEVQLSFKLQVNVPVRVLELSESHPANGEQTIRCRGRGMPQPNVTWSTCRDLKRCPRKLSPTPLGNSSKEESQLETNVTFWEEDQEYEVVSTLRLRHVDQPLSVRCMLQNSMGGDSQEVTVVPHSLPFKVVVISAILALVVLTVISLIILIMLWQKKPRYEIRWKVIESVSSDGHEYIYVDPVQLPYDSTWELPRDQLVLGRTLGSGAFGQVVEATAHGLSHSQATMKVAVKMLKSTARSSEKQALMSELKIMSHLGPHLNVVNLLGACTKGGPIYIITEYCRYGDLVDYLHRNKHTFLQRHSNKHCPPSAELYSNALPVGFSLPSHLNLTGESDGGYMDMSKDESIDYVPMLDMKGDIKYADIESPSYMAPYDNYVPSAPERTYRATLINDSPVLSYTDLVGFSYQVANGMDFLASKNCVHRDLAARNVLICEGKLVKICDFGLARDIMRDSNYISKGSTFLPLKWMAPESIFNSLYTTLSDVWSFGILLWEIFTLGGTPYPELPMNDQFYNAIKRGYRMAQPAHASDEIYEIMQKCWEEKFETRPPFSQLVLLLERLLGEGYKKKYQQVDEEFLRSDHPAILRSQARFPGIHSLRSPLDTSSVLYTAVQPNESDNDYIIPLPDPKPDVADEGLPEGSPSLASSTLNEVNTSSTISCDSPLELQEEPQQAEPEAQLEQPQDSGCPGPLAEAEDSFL
Description: as §1

[3] = tested on: NCI-H460 lung carcinoma xenograft; type: in vivo; details: for Tumor Volume T/C %: NCI-H460 xenograft, monotherapy
Description: as §2, §3, §4, §5, §6, §7

| Molecule | inhibition of PDGF-BB-stimulated phosphorylation of Akt and p44/42 MAP kinase [1] | Kd (hPDGFRβ) [nM] | binding to human PDGFRα (human PDGFRα) | tumor regression, number of mice ([2]; BxPC3, 40 mg/kg each antibody i.p. three times a week) | antitumor activity ([2]; BxPC3, monotherapy 40 mg/kg i.p. three times a week) | Tumor Volume T/C % [2] [%] | increase of affinity for mPDGFRβ of IgG over its Fab form (mPDGFRβ; BIAcore) | T/C % on day 22 post treatment ([3]; NCI-H460, 40 mg/kg each antibody i.p. three times a week) [%] | tumor growth inhibition ([3]; NCI-H460, 60 mg/kg i.p. twice weekly) | Tumor Volume T/C % [3] [%] | Kd (mPDGFRβ; surface plasmon resonance, one experiment) [nM] |
| --- | --- | --- | --- | --- | --- | --- | --- | --- | --- | --- | --- |
| B1 | potently inhibited | 0.0417 | did not bind | no regressions | failed to show any antitumor activity | 100 | approximately 57 times | 66 | significantly slowed the growth | 60 |  |
| B2 | potently inhibited | 0.0136 | does not bind |  |  | 100 |  |  |  | 60 | 0.0605 |
